Among the data in publication PMC5852640 are stoichiometry N values, retold here.

Assay [1] has as its target BG505 SOSIP.664 HIV-1 envelope glycoprotein trimer (HIV-1 (BG505, clade A)). The experiment in a line: SEC; purified Drug Substance of the 50 L Confirmation, 200 L Demonstration and 200 L cGMP runs; SEC / SE-HPLC; details in SOM Methods.
Assay [2] shares this target. The experiment in a line: negative-stain electron microscopy; NS-EM imaging of the purified Drug Substance of the three production runs; details in SOM Methods.

For “BG505 SOSIP.664 HIV-1 envelope glycoprotein trimer (complex)”, the stoichiometry N in assay [1] and in assay [2] was 3 each time.
